Patent US20120225828A1 (PALATIN TECHNOLOGIES, published 2012)
Bridge positions count the residues as written; N and C are the ends. Square brackets hold non-standard residues; d marks the D form. 1Nal = N[C@@H](Cc1cccc2ccccc12)C(=O)O; Cit = NC(=O)NCCC[C@H](N)C(=O)O; Nle = CCCC[C@H](N)C(=O)O; Dab = NCC[C@H](N)C(=O)O; Dap = NC[C@H](N)C(=O)O

Molecular target: human melanocortin-1 receptor hMCR-1 expressed by the human melanoma cell line HBL (human, UniProt Q01726 1-317)
Test: cell-based or functional assay

Sequence of human melanocortin-1 receptor hMCR-1 expressed by the human melanoma cell line HBL (Q01726 whole entry): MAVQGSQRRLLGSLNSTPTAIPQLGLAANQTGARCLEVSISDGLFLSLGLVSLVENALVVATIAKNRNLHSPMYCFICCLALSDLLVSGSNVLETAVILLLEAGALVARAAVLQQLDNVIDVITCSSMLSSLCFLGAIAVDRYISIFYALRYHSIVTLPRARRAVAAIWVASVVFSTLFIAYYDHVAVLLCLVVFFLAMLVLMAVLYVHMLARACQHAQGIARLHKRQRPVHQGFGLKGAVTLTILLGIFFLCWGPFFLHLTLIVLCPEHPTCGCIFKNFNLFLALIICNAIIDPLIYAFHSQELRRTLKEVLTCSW

| Binder | MC-1 Emax (average; cAMP HBL) | MC-1 EC50 (average; cAMP HBL) |
| --- | --- | --- |
| Ac-[Nle]E[Cit][dF]R[Dab]W-NH2 (lactam 2-6) [Ac-Nle-cyclo(Glu-Cit-D-Phe-Arg-Dab)-Trp-NH2] | 97% | – |
| Ac-[Nle][Dap]H[dF]R[Dap]W-NH2 (linker 2-6 via C(:O)‑(CH2)2‑C(:O)) [Ac-Nle-cyclo(Dap-His-D-Phe-Arg-Dap)-Trp-NH2 with bridge C(═O)-(CH2)2-C(═O)] | 70% | 0.007 nM |
| Ac-[Nle]EH[dF]A[Dab]W-NH2 (lactam 2-6; SMILES CCCC[C@H](NC(C)=O)C(=O)N[C@H]1CCC(=O)NCC[C@@H](C(=O)N[C@@H](Cc2c[nH]c3ccccc23)C(N)=O)NC(=O)[C@H](C)NC(=O)[C@@H](Cc2ccccc2)NC(=O)[C@H](Cc2c[nH]cn2)NC1=O) [Ac-Nle-cyclo(Glu-His-D-Phe-Ala-Dab)-Trp-NH2] | 72% | 0.115 nM |
| Ac-[Nle]EH[dF]G[Dab]W-NH2 (lactam 2-6; SMILES CCCC[C@H](NC(C)=O)C(=O)N[C@H]1CCC(=O)NCC[C@@H](C(=O)N[C@@H](Cc2c[nH]c3ccccc23)C(N)=O)NC(=O)CNC(=O)[C@@H](Cc2ccccc2)NC(=O)[C@H](Cc2c[nH]cn2)NC1=O) [Ac-Nle-cyclo(Glu-His-D-Phe-Gly-Dab)-Trp-NH2] | 59% | 4 nM |
| Ac-[Nle]EH[dF]R[Dap]W-NH2 (lactam 2-6) [Ac-Nle-cyclo(Glu-His-D-Phe-Arg-Dap)-Trp-NH2] | 91% | – |
| Ac-[Nle]DH[dF]R[Dap]W-NH2 (lactam 2-6; SMILES CCCC[C@H](NC(C)=O)C(=O)N[C@H]1CC(=O)NC[C@@H](C(=O)N[C@@H](Cc2c[nH]c3ccccc23)C(N)=O)NC(=O)[C@H](CCCNC(=N)N)NC(=O)[C@@H](Cc2ccccc2)NC(=O)[C@H](Cc2c[nH]cn2)NC1=O) [Ac-Nle-cyclo(Asp-His-D-Phe-Arg-Dap)-Trp-NH2] | 88% | 0.195 nM |
| Ac-[Nle]EH[dF]R[Dab][1Nal]-NH2 (lactam 2-6) [Ac-Nle-cyclo(Glu-His-D-Phe-Arg-Dab)-Nal 1-NH2] | 72% | – |
| Ac-[Nle]EH[dF]A[Dab]-NH2 (lactam 2-6; SMILES CCCC[C@H](NC(C)=O)C(=O)N[C@H]1CCC(=O)NCC[C@@H](C(N)=O)NC(=O)[C@H](C)NC(=O)[C@@H](Cc2ccccc2)NC(=O)[C@H](Cc2c[nH]cn2)NC1=O) [Ac-Nle-cyclo(Glu-His-D-Phe-Ala-Dab)-NH2] | 73% | 44 nM |
| Ac-[Nle][Dab]H[dF]R[Dap]W-NH2 (linker 2-6 via C(:O)‑(CH2)2‑C(:O)) [Ac-Nle-cyclo(Dab-His-D-Phe-Arg-Dap)-Trp-NH2 with bridge C(═O)-(CH2)2-C(═O)] | 78% | 0.006 nM |

Next, values leading:

| MC-1 Emax (average; cAMP HBL) | MC-1 EC50 (average; cAMP HBL) | Binder |
| --- | --- | --- |
| 86% | – | Ac-[Nle]EA[dF]R[Dab]W-NH2 (lactam 2-6) [Ac-Nle-cyclo(Glu-Ala-D-Phe-Arg-Dab)-Trp-NH2] |
| 100% | – | Ac-[Nle]ER[dF]R[Dab]W-NH2 (lactam 2-6) [Ac-Nle-cyclo(Glu-Arg-D-Phe-Arg-Dab)-Trp-NH2] |
| 79% | – | Ac-[Nle]EH[dF]R[Dab]W-OH (lactam 2-6; SMILES CCCC[C@H](NC(C)=O)C(=O)N[C@H]1CCC(=O)NCC[C@@H](C(=O)N[C@@H](Cc2c[nH]c3ccccc23)C(=O)O)NC(=O)[C@H](CCCNC(=N)N)NC(=O)[C@@H](Cc2ccccc2)NC(=O)[C@H](Cc2c[nH]cn2)NC1=O) [Ac-Nle-cyclo(Glu-His-D-Phe-Arg-Dab)-Trp-OH] |
| 85% | 0.32 nM | Ac-[Nle]EH[dF]R[Dab]-NH2 (lactam 2-6; SMILES CCCC[C@H](NC(C)=O)C(=O)N[C@H]1CCC(=O)NCC[C@@H](C(N)=O)NC(=O)[C@H](CCCNC(=N)N)NC(=O)[C@@H](Cc2ccccc2)NC(=O)[C@H](Cc2c[nH]cn2)NC1=O) [Ac-Nle-cyclo(Glu-His-D-Phe-Arg-Dab)-NH2] |
